Measurements: patent publication US10214741B2, “Methods and compositions for inhibiting retinopathy of prematurity” (University of Utah Research Foundation, priority 2014, dated 2019)

Legend:
retina [1] = settings: long-term periocular treatment; cited from earlier work
rat ROP model = experiment: Lectin-stained retinal flat mounts, IVNV and AVA, rat ROP model (rat 50/10 OIR model); format: in vivo; settings: 1 uL intravitreal, ROP model
macrophages = experiment: Macrophages in rat ROP and ROP+SO models; format: in vivo; settings: 1 uL intravitreal
Description: Activation of NADPH oxidase generally requires aggregation of a NOX isoform (NOX1-5, Duox1 or 2) with membrane bound p22phox; for NOX1-3 activation, aggregation with Rac1 and cytoplasmic subunits p47phox, p67phox or homologs is also required. Few studies address oxygen effects on NADPH oxidase regulated signaling in ROP or development. Studying NADPH oxidase in vivo is also complicated, because 1) of compensation from NOX isoforms or homologs, which differ in different tissues, and 2) most inhibitors are not specific. In this example, oxygen stresses were varied by using 3 different OIR models: ROP and ROP+SO models in rat and OIR model in mouse. NADPH oxidase-induced signaling in ECs was targeted by reducing leukocyte/macrophages, which generate ROS through NADPH oxidase, or with a transgenic mouse. In rat ROP and ROP+SO models, macrophages ˜75% (FIG. 7A) were reduced with 1 uL intravitreal clodronate). […] Macrophages have multiple effects on angiogenesis including through non-NADPH oxidase mechanisms, so a more specific method was used to study NADPH oxidase-related signaling. NOX 1, 2, 4 are known to be involved in pathologic retinal angiogenesis; NOX2 is in macrophages and ECs. Therefore p47phox−/− mice were used to reduce NADPH oxidase activation from NOX 1-3. […]

retina [2] = experiment: TUNEL staining, retinal layer thickness, caspase 3 in retina, rat ROP model; format: in vivo; settings: compared with PBS
Experimental: Whole eye globes were fixed in 4% PFA containing 10 mM sodium orthovanadate for 10 minutes. Corneas and lenses were removed, and posterior eyecups were fixed for another 15 minutes in 4% PFA, then incubated in 30% sucrose/PBS at 4° C. overnight, and mounted in optimal cutting temperature compound (Tissue-Tek; Electron Microscopy Sciences, Hatfield, Pa.). Cryosections (12 μm) were cut sequentially and stained for immunofluorescence analysis. Cryosections were incubated with rabbit anti-phosphorylated VEGFR2 (p-VEGFR2 at Y951; Santa Cruz Biotechnology, Santa Cruz, Calif.) overnight at 4° C. After washes, sections were incubated with AlexaFluor 405 conjugated goat anti-rabbit second antibody for p-VEGFR2 and lectin for 1 hour. Sections stained with only secondary antibody and DAPI were controls. […] For p-VEGFR2 in retinal vessels, the density of p-VEGFR2 colabeling with lectin-stained ECs of the primary vascular plexus at the junctions between avascular retina and vascular retina was measured with the threshold function of the Java-based imaging software (NIH). TUNEL-positive cells colabeled with tetramethylrhodamine red (TMR red) and diamino-2-phenylindole (DAPI) were counted in retinal sections imaged at ×4 magnification. Retinal thickness was measured from ganglion cell to ONL in DAPI-stained sections captured at ×40 magnification using Java-based imaging software (NIH). […]

EPOR = EPOR expression in hRMVECs (qPCR, Western blot); format: cell-based, human; settings: overnight treatment, vs PBS
Description: hRMVECs (Cell Systems, Kirkland, Wash.) were maintained in EGM-2 endothelial growth medium (Lonza, Walkers-ville, MD) supplemented with 5% fetal bovine serum. Cells of passage 3 to 5 were used for experiments. […]
For siRNA transfection, hRMVECs at 70% confluency were transfected in six-well plates with siRNAs targeting human EPOR, VEGFR2, or STAT3 (Life Technologies, Carlsbad, Calif.) using Lipofectamine 2000 reagent (Invitrogen by Life Technologies, Carlsbad, Calif.). A silencer selective negative control siRNA was used as control.
Total RNA of cells was extracted by TRI Reagent (Sigma-Aldrich, St. Louis, Mo.). For dissected retinas, total RNA was extracted using an RNeasy mini kit (Qiagen, Valencia, Calif.). RNA was quantified using a NanoDrop spectrophotometer (Thermo Fisher Scientific, Waltham, Mass.). cDNA was generated with the use of a high-capacity cDNA archive kit (Life Technologies, Carlsbad, Calif.). qPCR was performed on a Mastercycler ep realplex system (Eppendorf, Hauppauge, N.Y.) with the use of SYBR Green master mix (Roche Diagnostics, Indianapolis, Ind.) and primers synthesized by the core research facility of the University of Utah. Expression levels for VEGFA were normalized to the mean value of internal control β-actin. […]
Dissected retinas and hRMVECs were lysed in radioimmunoprecipitation assay buffer with 1:100 protease inhibitors (Roche Diagnostics, Indianapolis, Ind.) and 2 mmol/L sodium orthovanadate and were homogenized and centrifuged at 13,000 rpm (15,700 g) for 10 minutes at 4° C. Total protein in the supernatant fluid was quantified by a bicinchoninic acid assay (Pierce BCA; Thermo Fisher Scientific, Waltham, Mass.). […] Blots were visualized, and the relative densities of bands were calculated as described herein, using gel analysis software (UN-SCAN-IT gel, version 6.1; Silk Scientific, Orem, Utah). Relative activities were calculated as the ratio of phosphorylated to total protein or to β-actin and are expressed as fold difference compared with control. At least six samples from each group were measured and analyzed.

rMVECs = experiment: Lentivirus transduction specificity (ve-cadherin promoter) in cultured cells; format: cell-based; settings: rMVECs vs rat MC-1s, 293T
STAT3 = experiment: Western blot of STAT3 in 293T cotransfected with Lenti-VE-cad-GFP-driven shRNA and plasmid expressing coding sequence; format: cell-based, rat; settings: 293Ts
Description: The strategy can be similar to knockdown of MC-expressed VEGFA, except a ve-cadherin promoter to target ECs can be used. The ve-cadherin promoter recruits polymerase II to drive miR30 embedded shRNAs. […] For control, shRNA targeted to luciferase (luc.shRNA), a nonmammalian gene, was used. Into a plasmid DNA expressing a Flag-tagged wild type (wt) coding sequence (wt-cDNA) for EPOR or VEGFR2, point mutations in the cognate region of the cDNA can be introduced where the shRNA binds to render the cDNA resistant to RISC cleavage without changing the native amino acid sequence (mut-cDNA). Then cotransfect 293T cells with either VEGFR2.shRNA or EPOR.shRNA and respective wt-cDNA or mut-cDNA. Off target effects can be determined by western blots of Flag expression or from interferon-induced genes using BLOCK-iT RNAi Stress Response Control Kit (Invitrogen, CA). Groups can be: rat EPOR.shRNAs+rat EPOR-wt-cDNA, rat EPOR. shRNAs+rat EPOR-mut-cDNA, rat VEGFR2.shRNA+rat VEGFR2-wt-cDNA or rat VEGFR2.shRNA+rat VEGFR2-mut-cDNA. Luc.shRNA and no DNA transfection can be controls. For specificity (FIG. 14A), lentiviral transduction of rECs, rat MCs (rMC-1s), human ARPE can be tested.
Using methods as in Example 5, 3 STAT3.shRNAs for knockdown in 293 Ts (FIG. 14D) were developed and tested. […]

pSTAT3 = experiment: IHC densitometry of pSTAT3 colabeled with lectin, p18 rat ROP model; format: in vivo; settings: injected at p10, 10^6 viral particles/inj, vs. luc.shRNA

## CN(C)c1ccc(/C=C2\C(=O)Nc3ccccc32)cc1 [SU4312]
Retina [1]
  retinal apoptosis: no retinal apoptosis

## O=P(O)(O)C(Cl)(Cl)P(=O)(O)O [clodronate]
Rat ROP model
  AVA: not AVA
Rat ROP model; vs. PBS
  IVNV: significantly reduced
macrophages
  reduction of macrophages: ~75%

B1: luciferase.shRNA: control lentivector shRNA to the nonmammalian gene luciferase (nucleic acid)
DNA: TGCTGTTGACAGTGAGCGAAATGTTTACTACACTCGGATATAGTGAAGCCACAGATGTATATCCGAGTGTAGTAAACATTCTGCCTACTGCCTCGGA
Retina [2]
  TUNEL+ cells: increased TUNEL+ cells at P18 but not at P25
  thickness of the retina, INL or ONL: did not alter the thickness of the retina

B2: vascular endothelial growth factor A (protein)
chain: APMAEGGGQNHHEVVKFMDVYQRSYCHPIETLVDIFQEYPDEIEYIFKPSCVPLMRCGGCCNDEGLECVPTEESNITMQIMRIKPHQGQHIGEMSFLQHNKCECRPKKDRARQENPCGPCSERRKHLFVQDPQTCKCSCKNTDSRCKARQLELNERTCRCDKPRR
notes: growth factor used at 20 ng/mL to stimulate hRMVECs
EPOR; 20 ng/mL VEGFA or 10 IU/mL EPO
  EPOR protein: increased EPOR mRNA expression (FIG. 35A) and protein levels
EPOR
  EPOR mRNA expression: increased EPOR mRNA expression

B3: STAT3.shRNA2: lentivector-ve-cadherin STAT3.shRNA with the best knockdown; rat STAT3 (nucleic acid)
chain: TGCTGTTGACAGTGAGCGAATCGTGGATCTGTTCAGAAACTAGTGAAGCCACAGATGTAGTTTCTGAACAGATCCACGATCTGCCTACTGCCTCGGA
rMVECs
  cell specificity of transduction: showed specificity for rat MVECs
STAT3
  STAT3 knockdown among 3 STAT3.shRNAs: best knockdown
pSTAT3
  pSTAT3/STAT3 colabeling with lectin: STAT3-lectin colabeling was reduced
pSTAT3; listed as STAT3.shRNA
  pSTAT3/STAT3 colabeling with lectin: reduced
